Target: Recombinant full-length human TDP-43 (human, UniProt Q13148 1-414)
Test: cell-based or functional assay

Recombinant full-length human TDP-43, sequence (Q13148 whole entry): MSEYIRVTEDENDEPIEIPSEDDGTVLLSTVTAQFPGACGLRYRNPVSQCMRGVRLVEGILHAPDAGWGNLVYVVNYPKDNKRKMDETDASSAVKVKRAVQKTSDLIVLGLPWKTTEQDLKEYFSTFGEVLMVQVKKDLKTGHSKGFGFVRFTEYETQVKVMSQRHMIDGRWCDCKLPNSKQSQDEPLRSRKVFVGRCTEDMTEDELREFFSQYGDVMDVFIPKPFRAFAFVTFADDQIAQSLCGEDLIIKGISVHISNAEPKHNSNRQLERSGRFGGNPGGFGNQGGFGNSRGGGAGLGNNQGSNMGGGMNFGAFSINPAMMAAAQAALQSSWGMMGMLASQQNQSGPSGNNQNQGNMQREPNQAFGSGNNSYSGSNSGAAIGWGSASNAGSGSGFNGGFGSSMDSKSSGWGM

B1: His-tagged CHCHD10^S59L recombinant protein (natural protein, human, UniProt Q8WYQ3 17-142, looked up)
chain: AAPSAHPPAHPPPSAAAPAPAPSGQPGLMAQMATTAAGVAVGLAVGHVMGSALTGAFSGGSSEPSQPAVQQAPTPAAPQPLQMGPCAYEIRQFLDCSTTQSDLSLCEGFSEALKQCKYYHGLSSLP
  area of high-height particles > 10 nm by atomic force microscopy after co-incubation of TDP-43 (1 μM) with CHCHD10^S59L (1 μM), 37 °C, 8 h, shaking, against TDP-43 alone: > 3 fold

Reference: PMC9254494, “Modulation of synaptic plasticity, motor unit physiology, and TDP-43 pathology by CHCHD10” (Acta Neuropathologica Communications, 2022)
